Assay results as given in patent US20210292730.

Target: T1, Recombinant murine APRIL (Sigma SRP3189-20UG), Q9D777
T1 chain: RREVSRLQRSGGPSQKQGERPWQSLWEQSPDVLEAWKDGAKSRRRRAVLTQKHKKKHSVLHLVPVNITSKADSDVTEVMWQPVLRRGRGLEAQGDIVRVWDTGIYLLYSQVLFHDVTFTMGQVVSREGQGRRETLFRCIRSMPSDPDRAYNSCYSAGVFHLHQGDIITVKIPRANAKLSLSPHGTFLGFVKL

B1: plant produced recombinant human Furin (truncated form, pEAQ-Furin (truncated)-His6-KDEL, produced in N. benthamiana) (protein)
chain: QGQKVFTNTWAVRIPGGPAVANSVARKHGFLNLGQIFGDYYHFWHRGVTKRSLSPHRPRHSRLQREPQVQWLEQQVAKRRTKRDVYQEPTDPKFPQQWYLSGVTQRDLNVKAAWAQGYTGHGIVVSILDDGIEKNHPDLAGNYDPGASFDVNDQDPDPQPRYTQMNDNRHGTRCAGEVAAVANNGVCGVGVAYNARIGGVRMLDGEVTDAVEARSLGLNPNHIHIYSASWGPEDDGKTVDGPARLAEEAFFRGVSQGRGGLGSIFVWASGNGGREHDSCNCDGYTNSIYTLSISSATQFGNVPWYSEACSSTLATTYSSGNQNEKQIVTTDLRQKCTESHTGTSASAPLAAGIIALTLEANKNLTWRDMQHLVVQTSKPAHLNANDWATNGVGRKVSHSYGYGLLDAGAMVALAQNWTTVAPQRKCIIDILTEPKDIGKRLEVRKTVTACLGEPNHITRLEHAQARLTLSYNRRGDLAIHLVSPMGTRSTLLAARPHDYSADGFNDWAFMTTHSWDEDPSGEWVLEIENTSEANNYGTLTKFTLVLYGTAPEGLPVPPESSGCKTLTSSQAHHHHHHKDEL
**Q.** How did the “in vitro cleavage of 5 µg APRIL by 25 ng Furin, 25° C., 1 h, SDS-PAGE” value turn out when B1 was run?
**A.** recombinant APRIL protein is cleaved by both plant produced human Furin (25ng) or commercial Furin (25 ng) and 16.8 kDa fragment was generated
